Source: patent publication US20180327723A1, “Production of Glycosylated Nootkatol in Recombinant Hosts” (Evolva SA, priority 2015, published 2018)

Key:
yeast = conditions: Gavira et al., 2013, Metab Eng. 18:25-35; cited from earlier work
[1] = test system: wild-type MATa strain ATCC 28383; experiment: Growth-inhibitory effect on yeast, cell viability by plating (CFU); format: cell-based, S. cerevisiae; conditions: 0.125 g/L, 5 h of exposure, plated on YPD
Procedure: A 20 mL seed culture of wild-type MATa strain ATCC 28383 was grown in SD-THUL medium (0.67 Bacto yeast nitrogen base without amino acids, 2% glucose, 0.14% yeast synthetic drop-out medium without uracil, tryptophan, histidine and leucine). The culture was grown for 24 h, and 2.5 mL of the culture was used to inoculate 7 equal batches of 50 mL fermentation medium (2% (NH4)2SO4, 2% KH2PO4, 0.1% NaCl, 0.6% MgSO4.7H2O, 0.4% yeast extract, 1 mL mineral solution [FeSO4.7H2O 0.028%, ZnSO4.7H2O 0.029%, CuSO4.5H2O 0.008%, Na2MoO4.2H2O 0.024%, CoCl2.6H2O 0.024%, MnSO4.H2O 0.017%, HCl 1 mL], 0.5 mL 50% glucose, 1.5 mL vitamin solution [biotin 0.001%, Ca-pantothenate 0.012%, inositol 0.06%, pyridoxine-HCl 0.012%, thiamine-HCl 0.012%], and 0.5 mL 10% CaCl2) in 250 mL baffled Ehrlenmeyer flasks.
In 6 flasks, nootkatol or glycosylated nootkatol (nootkatol+1 glucose) were added in final concentrations of 0.06, 0.125, and 0.5 g/L. The 7th flask was used as a control and was not treated with nootkatol or glycosylated nootkatol. The cultures were grown at 28° C. and 170 rpm, and the cell viability was measured after 5 h of exposure by plating 100 μL of 1/1000 dilution of cell culture on yeast extract peptone dextrose (YPD) plates.

[2] = In vitro glycosylation of nootkatol by purified UGTs with UDP-glucose, LC-MS; format: biochemical; conditions: 5 mM nootkatol, 15 mM UDP-glucose, 5 μL purified enzyme, overnight at 30° C.
Text: UGT85A1 (SEQ ID NO:9, SEQ ID NO:10), UGT76E1 (SEQ ID NO:11, SEQ ID NO:12), UGT73E1 (SEQ ID NO:13, SEQ ID NO:14), UGT73C3 (SEQ ID NO:15, SEQ ID NO:16), and UGT76E12 (SEQ ID NO:17, SEQ ID NO:18) were each cloned into a T7 promoter-based vector comprising a sequence coding for an N-terminal 6×His-tag. The vector backbone was linearized with restriction endonucleases, the UGT genes were amplified by PCR, and the constructs were verified by DNA sequencing.
Competent E. coli expression cells were transformed individually with a UGT-comprising plasmid. A colony from each transformation was inoculated individually in 6 mL NZCYM broth comprising an antibiotic. The pre-culture was incubated overnight at 37° C. and 220 rpm and used to inoculate 100 mL NZYCM broth with an antibiotic at an initial OD600 of 0.2. After growth at 37° C. until an OD600 of 0.6-0.8, the cells were induced for protein expression using 0.2 mM IPTG, followed by incubation at 20° C. and 120 rpm for 18-20 h.
Cells were harvested by centrifugation at approximately 4° C. and approximately 4000 g for 20 min and resuspended in 3 mL 10 mM Tris-HCl, pH 8.0 plus protease inhibitor. After cell disruption, 6 mL 1×HIS binding buffer (20 mM Tris-HCl, pH 7.5, 500 mM NaCl, and 10 mM imidazole) were added to the suspension. Cell crude extracts were centrifuged at 4° C. and approximately 4000 g for 30 min. The supernatant was collected, and 300 μL of nickel beads were added; the mixture was incubated with gentle mixing at 4° C. for 2 h. The mixture was centrifuged at 4° C. and approximately 1000 g for 3 min, the supernatant was removed, and the beads were resuspended with 3 mL 1×HIS binding buffer. This step was performed twice. The beads were then resuspended and mixed gently in 500 μL 1×HIS Binding Buffer. The mixture was then transferred into a cold Eppendorf tube, centrifuged at 4° C. and approximately 1000 g, and the supernatant was removed. The beads were resuspended in 400 μL elution buffer (20 mM Tris-HCl, pH 7.5, 500 mM NaCl, 250 mM imidazole), mixed gently, centrifuged at 4° C. and approximately 1000 g for 3 min, and the supernatant was collected. This step was performed three times to collect three elution fractions. Glycerol was added in a 1:1 ratio to each elution tube and protein solutions were stored at −80° C. The fractions were analyzed by SDS-PAGE and Western Blot. The fraction comprising the UGT with the highest purity was used for the subsequent in vitro assay.
UGT85A1 (SEQ ID NO:9, SEQ ID NO:10), UGT76E1 (SEQ ID NO:11, SEQ ID NO:12), UGT73E1 (SEQ ID NO:13, SEQ ID NO:14), UGT73C3 (SEQ ID NO:15, SEQ ID NO:16), and UGT76E12 (SEQ ID NO:17, SEQ ID NO:18) were employed for in vitro glycosylation of nootkatol in the presence of the sugar donor, UDP-glucose. The reaction was carried out in a final volume of 50 μL buffer (100 mM Tris, pH 8.0, 5 mM MgCl2, 1 mM KCl), 5 mM nootkatol in DMSO, 15 mM UDP-glucose, and 5 μL purified enzyme solution. The reaction was incubated overnight at 30° C. The sample was analyzed by LC-MS on a BEH C18-column (100 mm×2.1 mm, 5 μm). Mobile phase A was 0.1% formic acid in water; mobile phase B was 0.1% formic acid in acetonitrile. B concentration gradient was 0-1 min, 1%; 1-5 min, 100%; 5-7 min, 100%; 7-7.1 min, 1%; 7.1-9 min, 1%. The injection volume was 5 μL. […]

Molecule | cellular toxicity in yeast (yeast) | cell death [1] | Area-under-curve of the peak of glycosylated nootkatol (nootkatol+1 glucose) produced in vitro [2]
C=C(C)[C@@H]1CCC2=CC(=O)C[C@@H](C)[C@]2(C)C1 [nootkatone, 4,4a,5,6,7,8-hexahydro-6-isopropenyl-4,4a-dimethyl-2(3H)-napthalenone] | cellular toxicity |  | 
C=C(C)C1CCC2=CC(O)CC(C)C2(C)C1 (centres unmarked) [nootkatol, 2,3,4,4a,5,6,7,8-octahydro-6-isopropenyl-4,4a-dimethyl-2-naphtalenol] | cellular toxicity | ~99% | 
UGT85A1: UDP-glycosyltransferase, Arabidopsis thaliana, SEQ ID NO: 9, SEQ ID NO: 10 (protein, listed as Arabidopsis thaliana) MGSQIIHNSQKPHVVCVPYPAQGHINPMMRVAKLLHARGFYVTFVNTVYNHNRFLRSRGSNALDGLPSFRFESIADGLPETDMDATQDITALCESTMKNCLAPFRELLQRINAGDNVPPVSCIVSDGCMSFTLDVAEELGVPEVLFWTTSGCAFLAYLHFYLFIEKGLCPLKDESYLTKEYLEDTVIDFIPTMKNVKLKDIPSFIRTTNPDDVMISFALRETERAKRASAIILNTFDDLEHDVVHAMQSILPPVYSVGPLHLLANREIEEGSEIGMMSSNLWKEEMECLDWLDTKTQNSVIYINFGSITVLSVKQLVEFAWGLAGSGKEFLWVIRPDLVAGEEAMVPPDFLMETKDRSMLASWCPQEKVLSHPAIGGFLTHCGWNSILESLSCGVPMVCWPFFADQQMNCKFCCDEWDVGIEIGGDVKREEVEAVVRELMDGEKGKKMREKAVEWQRLAEKATEHKLGSSVMNFETVVSKFLLGQKSQD |  |  | 1632282
UGT73C3: UDP-glycosyltransferase, Arabidopsis thaliana, SEQ ID NO: 15, SEQ ID NO: 16 (protein, listed as Arabidopsis thaliana) MATEKTHQFHPSLHFVLFPFMAQGHMIPMIDIARLLAQRGVTITIVTTPHNAARFKNVLNRAIESGLAINILHVKFPYQEFGLPEGKENIDSLDSTELMVPFFKAVNLLEDPVMKLMEEMKPRPSCLISDWCLPYTSIIAKNFNIPKIVFHGMGCFNLLCMHVLRRNLEILENVKSDEEYFLVPSFPDRVEFTKLQLPVKANASGDWKEIMDEMVKAEYTSYGVIVNTFQELEPPYVKDYKEAMDGKVWSIGPVSLCNKAGADKAERGSKAAIDQDECLQWLDSKEEGSVLYVCLGSICNLPLSQLKELGLGLEESRRSFIWVIRGSEKYKELFEWMLESGFEERIKERGLLIKGWAPQVLILSHPSVGGFLTHCGWNSTLEGITSGIPLITWPLFGDQFCNQKLVVQVLKAGVSAGVEEVMKWGEEDKIGVLVDKEGVKKAVEELMGDSDDAKERRRRVKELGELAHKAVEKGGSSHSNITLLLQDIMQLAQFKN |  |  | 1211635
UGT73E1: UDP-glycosyltransferase, Stevia rebaudiana, SEQ ID NO: 13, SEQ ID NO: 14 (protein, listed as Stevia rebaudiana) MSPKMVAPPTNLHFVLFPLMAQGHLVPMVDIARILAQRGATVTIITTPYHANRVRPVISRAIATNLKIQLLELQLRSTEAGLPEGCESFDQLPSFEYWKNISTAIDLLQQPAEDLLRELSPPPDCIISDFLFPWTTDVARRLNIPRLVFNGPGCFYLLCIHVAITSNILGENEPVSSNTERVVLPGLPDRIEVTKLQIVGSSRPANVDEMGSWLRAVEAEKASFGIVVNTFEELEPEYVEEYKTVKDKKMWCIGPVSLCNKTGPDLAERGNKAAITEHNCLKWLDERKLGSVLYVCLGSLARISAAQAIELGLGLESINRPFIWCVRNETDELKTWFLDGFEERVRDRGLIVHGWAPQVLILSHPTIGGFLTHCGWNSTIESITAGVPMITWPFFADQFLNEAFIVEVLKIGVRIGVERACLFGEEDKVGVLVKKEDVKKAVECLMDEDEDGDQRRKRVIELAKMAKIAMAEGGSSYENVSSLIRDVTETVRAPH |  |  | 1288384
UGT76E12: UDP-glycosyltransferase, Arabidopsis thaliana, SEQ ID NO: 17, SEQ ID NO: 18 (protein, listed as Arabidopsis thaliana) MQVLGMEEKPARRSVVLVPFPAQGHISPMMQLAKTLHLKGFSITVVQTKFNYFSPSDDFTHDFQFVTIPESLPESDFKNLGPIQFLFKLNKECKVSFKDCLGQLVLQQSNEISCVIYDEFMYFAEAAAKECKLPNIIFSTTSATAFACRSVFDKLYANNVQAPLKETKGQQEELVPEFYPLRYKDFPVSRFASLESIMEVYRNTVDKRTASSVIINTASCLESSSLSFLQQQQLQIPVYPIGPLHMVASAPTSLLEENKSCIEWLNKQKVNSVIYISMGSIALMEINEIMEVASGLAASNQHFLWVIRPGSIPGSEWIESMPEEFSKMVLDRGYIVKWAPQKEVLSHPAVGGFWSHCGWNSTLESIGQGVPMICRPFSGDQKVNARYLECVWKIGIQVEGELDRGVVERAVKRLMVDEEGEEMRKRAFSLKEQLRASVKSGGSSHNSLEEFVHFIRTL |  |  | 820053
UGT76E1: UDP-glycosyltransferase, Arabidopsis thaliana, SEQ ID NO: 11, SEQ ID NO: 12 (protein, listed as Arabidopsis thaliana) MEELGVKRRIVLVPVPAQGHVTPIMQLGKALYSKGFSITVVLTQYNRVSSSKDFSDFHFLTIPGSLTESDLKNLGPFKFLFKLNQICEASFKQCIGQLLQEQGNDIACVVYDEYMYFSQAAVKEFQLPSVLFSTTSATAFVCRSVLSRVNAESFLLDMKDPKVSDKEFPGLHPLRYKDLPTSAFGPLESILKVYSETVNIRTASAVIINSTSCLESSSLAWLQKQLQVPVYPIGPLHIAASAPSSLLEEDRSCLEWLNKQKIGSVIYISLGSLALMETKDMLEMAWGLRNSNQPFLWVIRPGSIPGSEWTESLPEEFSRLVSERGYIVKWAPQIEVLRHPAVGGFWSHCGWNSTLESIGEGVPMICRPFTGDQKVNARYLERVWRIGVQLEGELDKGTVERAVERLIMDEEGAEMRKRVINLKEKLQASVKSRGSSFSSLDNFVNSLKMMNFM |  |  | 1566336
